We go through one substance from patent US20140248278A1, “ANTI-CD22 ANTIGEN BINDING MOLECULES TO TREAT LUNG CANCER AND PROSTATE CANCER” (The Regents of the University of California, priority 2011, published 2014).

In data set [1] the test system is NSCLC lines (H1650, Calu-1, A549). Briefly: In vitro cytotoxicity assay, NSCLC lines. Format: cell-based, human. The note with it: after 48 hours. As for the experimental part: (§1) FIGS. 2A-C illustrate anti-CD22 mediated cytotoxicity and CD22 internalization. (A) Ligation of CD22 mediates cytotoxicity of NSCLC and NHL B cells. Cells were treated with the anti-CD22 or anti-CD20 mAbs (HB22.7 or rituximab, respectively) (50 ug/ml) for 48 hr then assessed with an MTT assay. (B) Internalization of CD22 was assessed on NSCLC cell lines. The degree of internalization was determined by assessing the cytotoxicity of a carrier protein attached to an anti-mouse mAb (ZAP) compared to a non-cytotoxic control (SAP). HB22.7-ZAP and HB22.7-SAP were assessed in Ramos B-cells (top) and two NSCLC cell lines, A549 and H727 (bottom). […] PBMCs (10:1 PBMC:A549 ratio) were incubated +/− complement (1:10 dilution), or +/− huHB22.7 (50 μg/cc). A549-specific cytotoxicity was assessed with a DELFIA EuTDA cytotoxicity assay and reported as % of control.
(§2) Ramos, A549, or H1650 cells (2-2.5×10^4 per sample) were plated in triplicate in 96 well round bottom plates in a volume of 100 μL per well. Cells were treated for 1 hour with HB22.7, or rituximab to final concentrations of 25 μg/mL. Control cells received media only. […] Viability was assessed by trypan blue exclusion; experiments were done in triplicate and results were expressed as % of control (untreated cells) with the error bars representing the standard deviation.

For the next data set, the system named is Ramos NHL cells. Briefly: In vitro cytotoxicity assay, Ramos cells. It is filed as cell-based, human. Conditions: after 48 hours. The method, then:
as §1, §2

On to rituximab: anti-CD20 control mAb, for which the cytotoxic response result in data set [1] is “no cytotoxic response”. In addition, the cytotoxic effects result in the data set on Ramos NHL cells is listed as “cytotoxic effects”.
